Results reported in the supplement of paper PMC9170038.

How the values were obtained:
[1] = tested on: MS2 coat protein; assay: apparent KD of MS2 coat protein, switch ON state; designed switch direction (-1 OFF switch, 1 ON switch): 1; higher = weaker reporter binding; conditions: FMN input: 0 or 200 uM; Eterna round: R93 (includes R88 designs)
In short: (§1)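 Apparent KD per design is the median of normalised cluster binding-curve fits. Designed RNA switches transcribed on-chip from Illumina sequencing clusters were titrated with SNAP-549-labelled MS2 coat protein in twofold steps from 0.7 or 1.5 nM to 3 µM, with 0.8–1.5 h down to 10–20 min per step. Buffer: 100 mM Tris-HCl pH 7.5, 80 mM KCl, 4 mM MgCl2, without or with constant ligand.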

[2] = tested on: MS2 coat protein; assay: apparent KD of MS2 coat protein, switch OFF state (with FMN for OFF switches, without FMN for ON switches); designed switch direction (-1 OFF switch, 1 ON switch): 1; higher = weaker reporter binding; conditions: FMN input: 0 or 200 uM; Eterna round: R93 (includes R88 designs)
In short: as §1

Sequence | apparent KD of MS2 coat protein [1] [nM] | apparent KD of MS2 coat protein [2] [nM]
AAAAAACAUGAGGAUCACCCAUGUGAAAAUAUGGGAGGAUAUACAAAGACGAGAGUCAAAGUAGAAGGCCUAAAAA [Mat - Same State 1 - Eli mod - D87] | 26.6 | 139
AAAAAACAUGAGGAUCACCCAUGUGAGAACAUGGGAGGAUAUACAAGGAUGAGAGUCAAGGUAGAAGGCCUAAGAA [Garnet 70] | 76.1 | 48.5
AAAAAAUAAAAAAAGGAUAUACUGCUAGAAACAUGAGGAUCACCCAUGUAACUAGCAGUAAUAAAAAAGAAGGAAAAAUAAAAAA [SS2: MS2 35] | 1.15 | 3.61
AAAAAUAAAACACAGGAUAUCCAAAAGAAAACAUGAGGAUCACCCAUGUAAAGAAAAUAAAAAUGGGAGAAGGGUGAAAAUAAGA [Mat - Same State 2 - JL mod - D21] | 29.9 | 52.6
AAAACACAUGAGGAUCACCCAUGUAUCUGGACCAUAGGAUAUCCGCACCCACUAAGGCGUGGAGAAGGGUGAGCCC [Antisoorti] | 160 | 124
AAAACACAUGAGGAUCACCCAUGUGCAAAAUUCGCAGGAUAUUUCUCGAUUAAAUGAUAGGAAGAAGGGUGAUAAA [Nob's Hobby 35 - Jieux - Same State 1] | 25.8 | 33.7
AAAAGACAUGAGGAUCACCCAUGUAAAAACAUAGGAGGAUAUGUCGUGAAAAAAGACUUGGCAGAAGGCCUAUGUC [SS1 - 44] | 19.7 | 30.7
AAAAGACAUGAGGAUCACCCAUGUAAAAACUUGGGAGGAUAUGCUUGGAAAACAUGCUAUGCAGAAGGCUCUAGUC [SS1 - 14] | 78.3 | 123
AAAAGACAUGAGGAUCACCCAUGUCAAAAGACAUGAGGAUAUGUACAGACUUCGGUCUGUACAGAAGGCAUGAAAA [SS1 - 1066] | 13.8 | 23.6
AAAAGACAUGAGGAUCACCCAUGUUAAGACGUAGGAGGAUAUGUAUGGAAAACAUGCUGUACAGAAGGCCUGUGUC [SS1 - 26] | 17.8 | 20.8
AAAAGACAUGAGGAUCACCCAUGUUAAGACGUAGGAGGAUAUGUCGUGAAAAAAGACUUGACAGAAGGCCUGUGUC [SS1 - 38] | 16 | 20.4
AAAAUACAUGAGGAUCACCCAUGUCCGACAAAUCAAGGAUAUGAUAGCCAAACCAAGCUGUUAGAAGGUGAAAGAA [Edengere] | 499 | 208
AAAAUACAUGAGGAUCACCCAUGUGAAAAUAUGGGAGGAUAUACAAAAACGAAAGUAAAAGUAGAAGGCCUAAAAA [SS! 1 MT 1] | 37.8 | 185
AAACCACAUGAGGAUCACCCAUGUAAAAAUAUGGGAGGAUAUCGGAAUAAAAUAAAGAAACGAGAAGGCCUAAAAA [59%, Flamingo, 5] | 33.7 | 472
AAAGAAAAACUAGAGGAUAUCCGAGUGGUAACAUGAGGAUCACCCAUGUGAUGAAAGGAACAUGAGGAGAAGGCUAGAAGAAAAA [JL Nando mod 8] | 14.4 | 257
AAAGACAUGGUGCAGGAUAUAUUAAUAGUCACAUGAGGAUCACCCAUGUUCAGAUAUCUGAACGAGUAGAAGGGCGAUGAAAAAA [SameState2 Malc#5] | 88.9 | 61.9
AAAUAAAUGACUAAGGAUAUAUUAGAGAAAACAUGAGGAUCACCCAUGUAAUAAUAAAAAGGGUGAUAGAAGGUAGUCAACAAAC [74%, More Paria 4] | 132 | 48.8
AAAUAAAUGACUGAGGAUAUAUCGAAGAAGACAUGAGGAUCACCCAUGUGAUAAUAAAAAGGGUGGUAGAAGGUAGUCAACAAAC [Mod 8 of Pariah 4 by Hyphema in Round 1] | 133 | 122
AAAUAACAUGAGGAUCACCCAUGUUACAACAAUACAGGAUAUGUGGGUGAAAAUAGCAUGACAGAAGGGUAAUGUA [SameState1 Malc#32] | 239 | 79.8
AAAUAACAUGCGCAGGAUAUGAGACCGAUAACAUGAGGAUCACCCAUGUUAAGGAAGAAAUAAAAUCAGAAGGGUGGGUGGACCU [Aatteri] | 25.7 | 26.6

Sequence | apparent KD of MS2 coat protein [1] [nM] | apparent KD of MS2 coat protein [2] [nM]
AAAUUACAUGAGGAUCACCCAUGUAGCGACGUGACAGGAUAUGUGGGUGAAAAUAGCAUGACAGAAGGGUCCCGUA [SameState1 Malc#40] | 57.8 | 23.1
AACAAUCUAUCUGAGGAUAUAUGUCAAAAGACAUGAGGAUCACCCAUGUAAAAACAUGAAAAAACAUAGAAGGCAGAUAGAUUGA [SS2: 1134] | 41.5 | 120
AACAAUCUAUCUGAGGAUAUAUGUCGAAAGACAUGAGGAUCACCCAUGUAAAAACAUGAAAAGACAUAGAAGGCAGAUAGAUUGA [SS2: 1132] | 18.6 | 36.1
AACAAUCUAUCUGAGGAUAUCAUGUAAAAGACAUGAGGAUCACCCAUGUUGCAGGAAACUGCUCAUGAGAAGGCAGAUAGAUUGA [SS2: 1125] | 12.8 | 13.8
AACAAUCUAUCUGAGGAUAUCAUGUCAAAGACAUGAGGAUCACCCAUGUACCAGGAAACUGGAUAUGAGAAGGCAGAUAGAUUGA [SS2: 1119] | 16.1 | 204
AACAAUCUAUCUGAGGAUAUCAUGUGAAAGACAUGAGGAUCACCCAUGUCGCAGGAAACUGCUCAUGAGAAGGCAGAUAGAUUGA [SS2: 1127] | 15.6 | 12.5
AACAUACAUGAGGAUCACCCAUGUUCCGGCAGGUCAGGAUAUUUAUCGAAUGAGUUCUAGAAAGAAGGGACAUAAA [JR_SS001_Sub008] | 45.8 | 62.7
AACUACAUUAUGAAGGAUAUCCACAUCAAGACAUGAGGAUCACCCAUGUAUACUUAGAUCAUACAGGAGAAGGUCAAGGGUGAAU [JR_SS002_Sub1207] | 244 | 89.2
AAGAAACAUGAGGAUCACCCAUGUAAUAAUAUGGGAGGAUAUACAAGGACAAUAGUCAAGGUAGAAGGCCUAAGAA [Mat - Same State 1 - Meechl mod - D142] | 26.7 | 249
AAGAAACAUGAGGAUCACCCAUGUGAGAAUAUGGGAGGAUAUACAAGGACGUAAGUCAAGGUAGAAGGCCUAAGAA [Mat - Same State 1 - Meechl mod - D139] | 25.8 | 200
AAGAAACAUGAGGAUCACCCAUGUGAGAUAAACACAGGAUAUGCGAAAAGAAAUAAAUAAGCAGAAGGGUGAAGAA [Mat - Same State 1 - Tesla mod - 70] | 26.4 | 62.6
AAGAAACAUGAGGAUCACCCAUGUGAUAAUAUGGGAGGAUAUACAAAGACGAAAGACGAAGUAGAAGGCCUAAGAA [Garnet 47] | 56.3 | 114
AAUAAAAAUAGUCAGGAUAUGAGAAAUAAGACAUGAGGAUCACCCAUGUAAUAAGUAAAAGUAAAUUAGAAGGGACAGGGUGAAA [JR_SS002_Sub019] | 200 | 167
AAUAAACAUGAGGAUCACCCAUGUGGUGGCCCAUGAGGAUAUCCAUGUACAUUGUACACAGGAGAAGGCAUAGCCA [Tioredes] | 119 | 27
AAUAAUUAUACGAAGGAUAUCGGUAAUUAGACAUGAGGAUCACCCAUGUAAUAUGGUUAAAUAUUCGAGAAGGUCGAGGGUGAAA [JR_SS002_Sub504] | 336 | 29.4
AAUAAUUAUACGAAGGAUAUCGGUAAUUAGACAUGAGGAUCACCCAUGUUAUAUGGUUAAAUAUUCGAGAAGGUCGAGGGUGAAA [JR_SS002_Sub505] | 36.1 | 32.7
AAUAUACAUGAGGAUCACCCAUGUUUUGGUGGGUCAGGAUAUAAAAACAAUUACAUAAAGUUAGAAGGGACAAAUA [JR_SS001_Sub004] | 111 | 121
AAUCCAAAUAGUUAGGAUAUGGGAAUUAAGACAUGAGGAUCACCCAUGUCAUUAAAACAAGUUAACCAGAAGGGACAGGGUGAAA [JR_SS002_Sub208] | 14.7 | 26.6
AAUCCAACUAGUCAGGAUAUCAGGCGUAAGACAUGAGGAUCACCCAUGUCCUUAGUACAAGUAACUGAGAAGGGACAGGGCGACC [JR_SS002_Sub410] | 74.9 | 39.5
